From the DeepSol protein solubility set

Assay: soluble on expression in E. coli; label from the status in PepcDB or PDB records

Sequence | soluble on expression in E. coli
MAHHHHHHMLLSVLHAPRQASIAAPLHKVQSCAYAAPDTVSAVLADCLGKDIAPVLRYLTAFATPPVSKPTSHQSHHLAASTRVLRHALVLLLYSFVTTWRGAPPRETPPPPGAIALTREERALALELCRCVAALNESDTGSESIATGERRGDTSAQAHSRDARAEATGSHVTSLEAVTGAQFALVRDALADMLAPDHHSDGSAASTPVRARDSVAGNGPLWRACEAWIAGAVGTAVGASVAPPSSPFAGITGVRMKEEEAVDLLERVNDQLNQIARGGAVNAASRQCGNSAAMP | not soluble
IGNTLHNYSVLADSKSVLLGVMSKNIQVGSFAYRYLCRTSSRMNLNHLQTVDGPIGRCYTLISQDGERTFAINEGHMNQLLPESIPEEVFEKASALVVSSYLMRGKEEDPMPKAVQRAIDFAKKHDVPVVLTLGTKYVIEGNAEWWQEYIRENVSVVAMNEEEGAALTGEHDPLAAADKALEWVDLVLCTAGPNGLYMAGYTDEKVKRETTHDILESSIEEFNKFEFSRAMRKEDCVNPMKVYSHIGPYLGGPLEIKNTNGAGDAALSALLHDMAANSFHQKEVPTSEKHEVRCLTYSSLSQICKYANRVSYEVLTQHSPRLSRALPEREDSLEETYWDR | not soluble
MGSDKIHHHHHHMTAQQGVPIKITNKEIAQEFLDKYDTFLFDCDGVLWLGSQALPYTLEILNLLKQLGKQLIFVTNNSTKSRLAYTKKFASFGIDVKEEQIFTSGYASAVYIRDFLKLQPGKDKVWVFGESGIGEELKLMGYESLGGADSRLDTPFDAAKSPFLVNGLDKDVSCVIAGLDTKVNYHRLAVTLQYLQKDSVHFVGTNVDSTFPQKGYTFPGAGSMIESLAFSSNRRPSYCGKPNQNMLNSIISAFNLDRSKCCMVGDRLNTDMKFGVEGGLGGTLLVLSGIETEERALKISHDYPRPKFYIDKLGDIYTLTNNEL | not soluble
MNLFQNLALKYSHTMMEKSLQKGFNVELLKQPEEKIPKQDKSYMLYAHVPFCHTFCPYCSFHKYYYDENLAKVYFQNLREEIKIMKNKGFDFTSMYVGGGTTLIDEEELLKTLELCKKLFNIKEISCESDPNHIDPNKLSMFKGIIDRLSCGIQSFDDETLKKVARYNKFGSSKELQEKISKALGILPIFSIDLIFNLPGQNEKQLLNDLEIAKNLAPQQITTYPLMKSNLTKDNIAKSLGVSIKDNEFTYYQIIREFFKDYTQNNGWSFSLEKNKLNDEYVSSHHEYLGVGSGAFSFLDGELLINAFNLNDYAKFIQEKQNANIAKACFDKKEIIKYVFLTGIFSGKIEIDKFNKTLNCNLEKELFIELLGLKTSGAIIKDQNALIATEFGQYLFVVLMKDFYTGMDLVRAVFRDDKRLKNKDYIDIMKENIDPLNSASMEFKAETN | not soluble
MASTSAATPLKNKRKFENGKKKPKTLKDEFGEKLDIKPVIVPPKPADEYDYDSSDEEDLRNTIGNIPIKWYDDEDHIGYDKFGEKIAKPAKKGEIETFLEKMEDPDYWRKVFDKQTGTDVKLTDEQIEKIHNIATGKYPTIGYNPYEPFLDIFSSQKEIHPIDNRPEPKSRFIPSKDEMRMVSRMVHAIKMGWAKGPRAKKEEHKSYDLWASEDALDNVTKSQLSRMRVHMPAPKVALPTHAESYNPPEEYIFDDEERKKWEEAEKEDRVLNFMPSKYDALRKVPQYDKFITERFERCLDLYLAPRQRKMRIHADPTDLLPDLPNPNDLRPFPTTLAFYMRGHTGQVRAITVEPERGELLASGGEDGTVRIWMIATGRCIKTFQMDGEVTSVSFSPVADRTLLAVAYEGKYVAILNTGCGDRLHVQQTEALLAETPTDAQEDGAVVTWRKSKEKLMLKMPNEVRQVTWHSKGDYFASVAIDDIAKSVYVHQLSKAKSQCPFQKRKGHVQAVTFHPTQARLFVATKIHVREYDLARCVLVKKLITGCKHISTMATDANGENLFLGGLDRRFCWMDLQMGNKPWKKLKHHTAAVRSVAYHKKYPLLATVSDDGTAMVYYARIYTDFVKDNELYPVKRLRAHEKTPNDLCMLHTTWHPTQPWLITAGADGTIALFTY | not soluble
MSLSAADMTQTIKTLALNVRLSCELLGVPESSYYERINRRPSETQLRRQHLTLKIVQLFKANRGIYGAPKIHHLLLDKEEKVGVKLVQKIMQQLQLKSVVLKKFKPGYSASDGINRKNLVQNEPTERNKVWSTDITYIPTQQGWAYLSTIMDRYTKKVIAWDLGKRMTVELVQRTLNKAIKSQDYPEAVILHSDQGSQYTSLEYEELLKYYGMTHSFSRRGYPYHNASLESWHGYLKREWVYQFKYKNFEEAYQSIFWYIEAFYNSKRIHQSLGYLTPNQFEKVSAEGHHHHHH | not soluble
MAHHHHHHMNRENLEELKILNLKNDKQPIYNFRCKHCNYVLFNDNEIIKHDFKISKIKKNYGNSCTSIFIEKKEWILTENKMKGVLNCPNCNIKLGKWSWTGICCSCGYLQIPAFMINSSNVDRMNISKTV | soluble
MSLGKLSILSKRKYTMKNQIQFSTFNFKDLPVRVILDPKGEFWFCGTDVCHILGYTNSRKALQDHCKQGGVTKRYTPTKSADQEMTFINEPNLYRLIIKSRKPEAEPFEAWVFEEVLPQIRKTGKYQLQPQQLALPEPEKKFSFEFTEYELQQLVWLWFAFMRGIVTFQHIEKAFKALGSNMSGDIYGQAYEYLSVYAQQTKSEGHHHHHH | not soluble
MSLDDFCNIPKGKEVVFGFNVPQSGAYADEGMDELKAYQLAVKHLNGEGDGGMLKTMKPLALKGNGVLGKKVTFVSGDTQTKADQARATAKRMIEKDGAIMITGGSSSAEAVAVQSLCQDVGVIFMAGLTHSNDTTGKDKRAYGFRHFFNAYMSGVALGPVLAEAYGKDRAAYHLTADYTWGWTQEESMKDATEKQGWKTVKAVRTPLGAADFSQYITPVLNSGADVLILNHYGKDMINSLTQAVQFGLRDKMANGKKFEIVVPLFSELMAQGAGDAIKGIYGTANWDWKLEDAATSAFTKSFGAAYGTPPSQAAQTCYVQAILYADAVERAGTFNPSKVIAALEGFEFDGLGNGKTLYRAADHQCFKDVLVVQGKEKPKDKFDLLEVKKIVPASQVTYDPSIFGGELGSKDAKAEGHHHHHH | soluble
MENPMNTDHTKRNLFELYAELIHQQEKWEGLIKAFLSDELRKLDVEHGSKSQLTMTEIHVLSCVGDNEPINVTSIAEKMNTTKATVSRISTKLLGAGFLHRTQLSDNKKEVYFRLTPAGKKLHSLHKYYHQKAEQRFLSFFDRYTEEEILFAERLFRDLVTKWYPSSEEIEGGLPSIFK | not soluble
MGSDKIHHHHHHMTEVISTQSVVDLAAIAEKFAFPGTVTNVQAFGSGNINDTFLVTVDSLEAQHFILQRINTLVFRQPELIMQNMRIFSDHVYQRLQYAPPSRRWEVPRILSTKDNHDYCTDTQGNFWRAISFISGSQSFDTMQDLAQAQEIGYALGMFHNLISDLSPEKLADTLVGFHITPLYLRHYEQVLATAKPQPSPELDYCLQFVSDRQSYACILENAKAAGELPLRLMHGDPKINNIMFDTVTHKAVSVIDLDTVKPGLVHYDIGDCLRSGCNHAGEETEHWESVAFDTDLCQGILQGYLSVAKDFLTENDYAYMYDAIRLIAFELGLRFFADYLAGNVYFKIKYPEHNLARALVQFKLTESIESQEIKIRKIIQDIK | not soluble
MSLDIEQQFLNDLDNQLWRAADKLRSNLDAANYKHVVLGLIFLKYVSDAFEERQQELTELFQKDDDDNIYYLPREDYDSDEAYQQAIAEELEIGDYYTEKNVFWVPKTARWNKLRDVITLPTGSVIWQDEQGEDVKLRSVSWLIDNAFDDIEKANPKLKGILNRISQYQLDADKLIGLINEFSLTSFNNPEYNGEKLNLKSKDILGHVYEYFLGQFALAEGKQGGQYYTPKSIVTLIVEMLEPYKGRVYDPAMGSGGFFVSSDKFIEKHANVKHYNASEQKKQISVYGQESNPTTWKLAAMNMVIRGIDFNFGKKNADSFLDDQHPDLRADFVMTNPPFNMKDWWHEKLADDPRWTINTNGEKRILTPPTGNANFAWMLHMLYHLAPTGSMALLLANGSMSSNTNNEGEIRKTLVEQDLVECMVALPGQLFTNTQIPACIWFLTKDKNAKNGKRDRRGQVLFIDARKLGYMKDRVLRDFKDEDIQKLADTFHNWQQEWSEENNQAGFCFSADLALIRKNDFVLTPGRYVGAEAEEDEGHHHHHH | soluble
MQSWSRVYCSLAKRGHFNRISHGLQGLSAVPLRTYADQPIDADVTVIGSGPGGYVAAIKAAQLGFKTVCIEKNETLGGTCLNVGCIPSKALLNNSHYYHMAHGTDFASRGIEMSEVRLNLDKMMEQKSTAVKALTGGIAHLFKQNKVVHVNGYGKITGKNQVTATKADGGTQVIDTKNILIATGSEVTPFPGITIDEDTIVSSTGALSLKKVPEKMVVIGAGVIGVELGSVWQRLGADVTAVEFLGHVGGVGIDMEISKNFQRILQKQGFKFKLNTKVTGATKKSDGKIDVSIEAASGGKAEVITCDVLLVCIGRRPFTKNLGLEELGIELDPRGRIPVNTRFQTKIPNIYAIGDVVAGPMLAHKAEDEGIICVEGMAGGAVHIDYNCVPSVIYTHPEVAWVGKSEEQLKEEGIEYKVGKFPFAANSRAKTNADTDGMVKILGQKSTDRVLGAHILGPGAGEMVNEAALALEYGASCEDIARVCHAHPTLSEAFREANLAASFGKSINF | not soluble
MENFPIISLDKVNGVERAATMEMIKDACENWGFFELVNHGIPREVMDTVEKMTKGHYKKCMEQRFKELVASKALEGVQAEVTDMDWESTFFLKHLPISNISEVPDLDEEYREVMRDFAKRLEKLAEELLDLLCENLGLEKGYLKNAFYGSKGPNFGTKVSNYPPCPKPDLIKGLRAHTDAGGIILLFQDDKVSGLQLLKDGQWIDVPPMRHSIVVNLGDQLEVITNGKYKSVMHRVIAQKDGARMSLASFYNPGSDAVIYPAPALVEKEAEENKQVYPKFVFDDYMKLYAGLKFQAKEPRFEAMKAMETDVKMDPIATV | soluble
MLEDLKRQVLEANLALPKHNLVTLTWGNVSAVDRERGVFVIKPSGVDYSIMTADDMVVVSIETGEVVEGAKKPSSDTPTHRLLYQAFPSIGGIVHTHSRHATIWAQAGQSIPATGTTHADYFYGTIPCTRKMTDAEINGEYEWETGNVIVETFEKQGIDAAQMPGVLVHSHGPFAWGKNAEDAVHNAIVLEEVAYMGIFCRQLAPQLPDMQQTLLNKHYLRKHGAKAYYGQ | soluble
MGSDKIHHHHHHMVEVVGVRFREAGHIYYFAPGKSEYIYNEKVLVESQQSKQLATVAIPKKTVDSDDLPEDLKPILNKATANDLEKEQKNLADAEAAKSIANEKIRAHDLKMKLVRVEYTFDRSKMIFYFTADGRIDFRELVKDLAAIFRTRIELRQIGVRDEAKILGGIGPCGRQLCCSTFLGDFMPVSIKMAKDQGLSLNPVKISGLCGRLMCCLKYENDEYEAAKKELPDYGKEVITPDGKGKVVGLNLLSRIVKVRLHGREIAADYDYEEIKEATAKVAAEKGDQNG | not soluble
MGSDKIHHHHHHCSDDDSVNEWDMSYVSLLPADYLRPTPSFTLKHVEEEGIEGSVEFQFMATTQKAVTQDINVHYSVTCDGIDANKINLSAKNLLIKAGSTASEPITLSITDWKYLENTKEALEYTLKIKIADIESTSAEVTNAAYYQEIVLKISKTAEKKKESVLLTNVKDWIFTFMTGVENSASNSVAGTGTNDVATNGVPFWLTVDFKEVKNVTGVQTTHWGAGYAPSKVEIFSSENGDDWVSIGQWDTKGRTQTITFDERVKTRYLKYQMITVPSRVDITRFYIYAW | not soluble
MGSDKIHHHHHHMKPIATPDPIIAQAVKLFAERGYAETNLPSIAKAANVAVGTIYRHFKGKEDILNTAFTDIMDYFHDSLADAANCNVSDPESTFSHLFDAAALTMQHYPTELHFIEQNVFNEALRPESRAARDRVTTLISNMLMEGQEHGVIVKADVRTQLAILYGSIVSMIDIVWVQQQLQGHVPDQDQLALELKNQIWNGLTCERSIFQ | not soluble
